From the supplement of paper PMC7125110 come the findings set out here.

The labels stand for the following.
B1: glmS ribozyme (parent)
chain: AUAAAAGCGCCAGAACUACAGAAAUGUAGUUGACGAGGAGGAGGUUUAUCGAAUUUUCGGCGGAUGCCUCCAAA

Common to all, as to details: with glucosamine-6-phosphate
In series [1] the parent is B1. Put plainly: kcat; higher = faster cleavage; RNA array. Summed up: (§1)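 On sequenced MiSeq chips, barcoded ribozyme variants were made in situ by E. coli RNA polymerase and followed at 37 °C through a hybridised Cy3 probe. Glucosamine-6-phosphate was flowed in at 40 μM to 10 mM in HEPES/KCl/Mg(OAc)2 buffer. Exponential fits to normalised per-tile medians gave kobs, and weighted Michaelis–Menten fits gave kcat and KM.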

The variants in series [2] derive from B1. As to the kind of experiment: self-cleavage kobs at 40 uM GlcN6P; higher = faster cleavage; RNA array. In short, it runs like this: as §1
Series [3] covers variants of B1. As to the kind of experiment: self-cleavage kobs at 10000 uM GlcN6P; higher = faster cleavage; RNA array. Summed up:
as §1

In series [4] the parent is B1. As to the kind of experiment: self-cleavage kobs at 640 uM GlcN6P; higher = faster cleavage; RNA array. In short, it runs like this:
as §1

Variants of B1 are the subject of series [5]. Put plainly: self-cleavage kobs at 2500 uM GlcN6P; higher = faster cleavage; RNA array. Summed up: as §1
The variants in series [6] derive from B1. As to the kind of experiment: KM; higher = weaker cofactor use; RNA array. Summed up:
as §1

Series [7] covers variants of B1. Put plainly: self-cleavage kobs at 160 uM GlcN6P; higher = faster cleavage; RNA array. Summed up: as §1

± gives the standard error. For some of these results: This sample holds only a part of the variants without activity.

The kcat is the number of substrate molecules converted per active site and unit of time at saturation. As a reminder, the KM is the concentration of substrate that gives half-maximal velocity.

Consider G51A G59A C70U, for which the kcat with glucosamine-6-phosphate [1] came to 1.55e-05 ± 3.5e-06 s⁻¹. The “self-cleavage kobs at 40 uM GlcN6P” value with glucosamine-6-phosphate [2] was under 1e-05 s⁻¹. For the same variant, the “self-cleavage kobs at 10000 uM GlcN6P” value with glucosamine-6-phosphate [3] was under 1e-05 s⁻¹.
As for C16A C67G, the kcat with glucosamine-6-phosphate [1] came out at 4.14e-05 ± 5.2e-06 s⁻¹. The “self-cleavage kobs at 640 uM GlcN6P” value with glucosamine-6-phosphate [4] is 3.73e-05 ± 1.5e-05 s⁻¹. Besides, the “self-cleavage kobs at 2500 uM GlcN6P” value with glucosamine-6-phosphate [5] amounted to 2.82e-05 ± 1.1e-05 s⁻¹. For the same variant, the “self-cleavage kobs at 10000 uM GlcN6P” value in the series with glucosamine-6-phosphate [3] was 4.37e-05 ± 8e-06 s⁻¹.
On to G51A C71G, for which the kcat in the series with glucosamine-6-phosphate [1] was 2.05e-05 ± 3.5e-06 s⁻¹.
With C68G C71U, the turnover number (kcat) with glucosamine-6-phosphate [1] is under 1e-05 s⁻¹.
Turning to U47C U56C, the turnover number (kcat) with glucosamine-6-phosphate [1] worked out at 0.00115 ± 0.00017 s⁻¹. The KM in the series with glucosamine-6-phosphate [6] stood at 1940 ± 650 µM. For the same variant, in the series with glucosamine-6-phosphate [4], the “self-cleavage kobs at 640 uM GlcN6P” value turned out to be 0.000323 ± 7.3e-05 s⁻¹. In the series with glucosamine-6-phosphate [5], the “self-cleavage kobs at 2500 uM GlcN6P” value was determined as 0.00061 ± 0.00012 s⁻¹. Moreover, the “self-cleavage kobs at 10000 uM GlcN6P” value in the series with glucosamine-6-phosphate [3] was determined as 0.000972 ± 0.00016 s⁻¹.
As for A42G A52C, the kcat in the series with glucosamine-6-phosphate [1] is 1.58e-05 ± 1.8e-06 s⁻¹.
With A42C C50A, the kcat with glucosamine-6-phosphate [1] is under 1e-05 s⁻¹. In addition, the “self-cleavage kobs at 40 uM GlcN6P” value with glucosamine-6-phosphate [2] was under 1e-05 s⁻¹. Moreover, the “self-cleavage kobs at 2500 uM GlcN6P” value with glucosamine-6-phosphate [5] is under 1e-05 s⁻¹. In the series with glucosamine-6-phosphate [3], the “self-cleavage kobs at 10000 uM GlcN6P” value was under 1e-05 s⁻¹.
Regarding A6U G41A, the catalytic constant (kcat) in the series with glucosamine-6-phosphate [1] is 1.73e-05 ± 2.5e-06 s⁻¹. In the series with glucosamine-6-phosphate [2], the “self-cleavage kobs at 40 uM GlcN6P” value is under 1e-05 s⁻¹. In addition, in the series with glucosamine-6-phosphate [7], the “self-cleavage kobs at 160 uM GlcN6P” value is under 1e-05 s⁻¹. Moreover, the “self-cleavage kobs at 640 uM GlcN6P” value in the series with glucosamine-6-phosphate [4] was under 1e-05 s⁻¹.
With U55C G66A, in the series with glucosamine-6-phosphate [1], the kcat is 0.0117 ± 0.003 s⁻¹. In addition, the KM with glucosamine-6-phosphate [6] is 1240 ± 450 µM. Moreover, the “self-cleavage kobs at 40 uM GlcN6P” value with glucosamine-6-phosphate [2] was determined as 0.0004 ± 6.8e-05 s⁻¹. The “self-cleavage kobs at 160 uM GlcN6P” value with glucosamine-6-phosphate [7] worked out at 0.00128 ± 0.0002 s⁻¹. Further, the “self-cleavage kobs at 640 uM GlcN6P” value in the series with glucosamine-6-phosphate [4] is 0.0034 ± 0.00061 s⁻¹. For the same variant, the “self-cleavage kobs at 2500 uM GlcN6P” value in the series with glucosamine-6-phosphate [5] was 0.0116 ± 0.0017 s⁻¹. Besides, in the series with glucosamine-6-phosphate [3], the “self-cleavage kobs at 10000 uM GlcN6P” value came to 0.00884 ± 0.0018 s⁻¹.
Regarding C16U A53U G66A C67U, in the series with glucosamine-6-phosphate [1], the kcat came to 0.00153 ± 0.0004 s⁻¹. For the same variant, in the series with glucosamine-6-phosphate [6], the Michaelis constant (KM) was 755 ± 320 µM. For the same variant, the “self-cleavage kobs at 40 uM GlcN6P” value with glucosamine-6-phosphate [2] worked out at 8.2e-05 ± 1.8e-05 s⁻¹. The “self-cleavage kobs at 640 uM GlcN6P” value in the series with glucosamine-6-phosphate [4] is 0.000671 ± 0.00013 s⁻¹. The “self-cleavage kobs at 2500 uM GlcN6P” value in the series with glucosamine-6-phosphate [5] was 0.000968 ± 0.00031 s⁻¹. Besides, the “self-cleavage kobs at 10000 uM GlcN6P” value in the series with glucosamine-6-phosphate [3] worked out at 0.00215 ± 0.00061 s⁻¹.
As to C16U U45C, the turnover number (kcat) with glucosamine-6-phosphate [1] was determined as 0.00254 ± 0.00049 s⁻¹. Also, the KM with glucosamine-6-phosphate [6] came out at 2290 ± 700 µM. In addition, in the series with glucosamine-6-phosphate [2], the “self-cleavage kobs at 40 uM GlcN6P” value was determined as 4.44e-05 ± 1.1e-05 s⁻¹. In addition, the “self-cleavage kobs at 160 uM GlcN6P” value with glucosamine-6-phosphate [7] was 0.000307 ± 0.00014 s⁻¹. The “self-cleavage kobs at 640 uM GlcN6P” value with glucosamine-6-phosphate [4] was found to be 0.000496 ± 0.0001 s⁻¹. For the same variant, in the series with glucosamine-6-phosphate [5], the “self-cleavage kobs at 2500 uM GlcN6P” value turned out to be 0.00224 ± 0.0007 s⁻¹. Moreover, the “self-cleavage kobs at 10000 uM GlcN6P” value with glucosamine-6-phosphate [3] was found to be 0.00203 ± 0.0003 s⁻¹.
For U56A C68G C71U, the kcat with glucosamine-6-phosphate [1] was 4.87e-05 ± 2e-05 s⁻¹. Moreover, the “self-cleavage kobs at 640 uM GlcN6P” value with glucosamine-6-phosphate [4] worked out at 7.83e-05 ± 1.6e-05 s⁻¹. Besides, in the series with glucosamine-6-phosphate [5], the “self-cleavage kobs at 2500 uM GlcN6P” value worked out at 4e-05 ± 1.6e-05 s⁻¹.
With A42U C50G, the kcat with glucosamine-6-phosphate [1] is under 1e-05 s⁻¹. In the series with glucosamine-6-phosphate [2], the “self-cleavage kobs at 40 uM GlcN6P” value was under 1e-05 s⁻¹. Further, the “self-cleavage kobs at 10000 uM GlcN6P” value with glucosamine-6-phosphate [3] is under 1e-05 s⁻¹.
On to A14G G40U, for which the kcat with glucosamine-6-phosphate [1] was found to be 0.00991 ± 0.0013 s⁻¹. Moreover, in the series with glucosamine-6-phosphate [6], the Michaelis-Menten constant (KM) came to 1350 ± 250 µM. Also, the “self-cleavage kobs at 40 uM GlcN6P” value with glucosamine-6-phosphate [2] turned out to be 0.000302 ± 4.1e-05 s⁻¹. Moreover, the “self-cleavage kobs at 160 uM GlcN6P” value with glucosamine-6-phosphate [7] amounted to 0.00117 ± 0.00023 s⁻¹. For the same variant, the “self-cleavage kobs at 640 uM GlcN6P” value with glucosamine-6-phosphate [4] was determined as 0.00267 ± 0.00043 s⁻¹. For the same variant, in the series with glucosamine-6-phosphate [5], the “self-cleavage kobs at 2500 uM GlcN6P” value was 0.00713 ± 0.0011 s⁻¹. In addition, in the series with glucosamine-6-phosphate [3], the “self-cleavage kobs at 10000 uM GlcN6P” value turned out to be 0.00879 ± 0.0013 s⁻¹.
On to G38C C50U, for which the kcat with glucosamine-6-phosphate [1] was under 1e-05 s⁻¹. For the same variant, in the series with glucosamine-6-phosphate [7], the “self-cleavage kobs at 160 uM GlcN6P” value was under 1e-05 s⁻¹. Further, in the series with glucosamine-6-phosphate [4], the “self-cleavage kobs at 640 uM GlcN6P” value was under 1e-05 s⁻¹. Besides, the “self-cleavage kobs at 10000 uM GlcN6P” value with glucosamine-6-phosphate [3] is under 1e-05 s⁻¹.
Consider G43U C67U, for which the kcat in the series with glucosamine-6-phosphate [1] came out at 5.98e-05 ± 3.8e-06 s⁻¹. In addition, in the series with glucosamine-6-phosphate [6], the KM is 699 ± 280 µM. The “self-cleavage kobs at 2500 uM GlcN6P” value in the series with glucosamine-6-phosphate [5] amounted to 5.2e-05 ± 1.1e-05 s⁻¹. For the same variant, in the series with glucosamine-6-phosphate [3], the “self-cleavage kobs at 10000 uM GlcN6P” value was 5.46e-05 ± 7.3e-06 s⁻¹.
Take G38U U57A: the kcat with glucosamine-6-phosphate [1] is 1.47e-05 ± 4.2e-06 s⁻¹. Besides, the “self-cleavage kobs at 640 uM GlcN6P” value with glucosamine-6-phosphate [4] was under 1e-05 s⁻¹.
For G44C U55C, in that order: 3.25e-05 ± 2.5e-06 s⁻¹ and 2.79e-05 ± 1.3e-05 s⁻¹.
Take U30A U45A C50U: the kcat in the series with glucosamine-6-phosphate [1] is under 1e-05 s⁻¹. For the same variant, the “self-cleavage kobs at 160 uM GlcN6P” value in the series with glucosamine-6-phosphate [7] is under 1e-05 s⁻¹.
Regarding A15G G51A, the catalytic constant (kcat) with glucosamine-6-phosphate [1] was under 1e-05 s⁻¹. In the series with glucosamine-6-phosphate [7], the “self-cleavage kobs at 160 uM GlcN6P” value was under 1e-05 s⁻¹. Further, the “self-cleavage kobs at 640 uM GlcN6P” value in the series with glucosamine-6-phosphate [4] was under 1e-05 s⁻¹.
